Experimental data as given in US20250025506A1 (INNOVATIVE CELLULAR THERAPEUTICS, published 2025).
Blank lines part the entries; values can stand above or below the binder they belong to.

Target: T1, UPK2 antigen on 293T cells (6600, Lenti-UPK2 antigen plasmid) (Homo sapiens (Human), UniProt O00526 85-184)
T1 construct: 293T cells transiently transfected with plasmid 6600 or infected with virus packaged from it; also called UPK2 target cells; 293T cells with UPK2 target
T1 sequence: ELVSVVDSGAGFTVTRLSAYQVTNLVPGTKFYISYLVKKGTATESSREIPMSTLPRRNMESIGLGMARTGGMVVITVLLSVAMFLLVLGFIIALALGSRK
Test: flow cytometry, histogram of 293T-6600 cells (293T transiently transfected with plasmid 6600, UPK2-noflag) stained with the antibody; goat-anti-human FITC secondary per paragraph 179

B1: S2B7 recombinant anti-UPK2 monoclonal antibody (murine-human chimeric) (antibody, V domains shown)
VH: EVQLQQSGAELMKPGTSVKMSCKAAGYTFTKYWIGWVKQRPGHGLEWIGDIYPGGGYTLFNEKFKGKATLTADTSSSTAYMQLSSLTSEDSAIYYCARGNYWGQGTTLTVSS
VL: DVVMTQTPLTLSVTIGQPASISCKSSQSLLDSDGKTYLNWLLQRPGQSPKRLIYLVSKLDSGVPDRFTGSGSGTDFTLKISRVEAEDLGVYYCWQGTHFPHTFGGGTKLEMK
percent of cells in the positive gate: 0.06%

B5: S3A4 recombinant anti-UPK2 monoclonal antibody (murine-human chimeric) (antibody, V domains shown)
VH: EVKLKQSGAELVKPGASVKLSCKASGYTLTSYYIYWVKQRPGQGLEWIGGISPSNGNTYFTEKFKNMATLTVDKSSNTAYMQLSSLTSEDSAVYYCARNYDYDVGFAYWGQGTLVTVSS
VL: DVVMTQTPLSLPVSLGDQASISCRSSQSIVHSNGNTYLEWYLQKPGQSPKLLIYKVSNRFSGVPDRFSGSGSGTDFTLKISRVEAEDLGVYYCFQGSHVPFTFGSGTKLEIK
percent of cells in the positive gate: 27%

Continued, values first:

percent of cells in the positive gate: 0.07%
B2: S3D10 recombinant anti-UPK2 monoclonal antibody (murine-human chimeric) (antibody, V domains shown)
VH: QVQLQQSGAELVRSGASVKLSCTDSGFNIKDYYMNWVKQRPEQGLEWIGWIDPENGVTQYDPKFQGKATVTADTFSNTAYLQLSSLTSEDTAVYYCNANYKYDWFGYWGQGTLVTVSA
VL: NIVMTQSPSSLSASLGERVSLTCRASQEISGYLSWLQQKPDGTIKRLIYAASTLDSGVPERFSGSRSGSDYSLTISSLESEDFADYYCLQYASYPWTFGGGTKLEMK

percent of cells in the positive gate: 0.48%
B3: S7F11 recombinant anti-UPK2 monoclonal antibody (murine-human chimeric) (antibody, V domains shown)
VH: EVQLKESGAELVRSGASVKLSCTASAFNIKDYYMNWMKQRPEQGLEWIGWIDPENGDTKYAPKFQGKATITADTSSSTAYLQLTSLTSEDSAVFYCNVNYKYDWFAYWGQGTLVTVSA
VL: DVVMTQSQKFMSTSVGDRVSVTCKASQNVGTNVAWYQQKPGQSPRALIYSASYRYSGVPDRFTGSGSGTDFTLTISNVQSEDLAEYFCQQYNTYPWTFGGGTKLEIK

percent of cells in the positive gate: 0.19%
B4: S7F9 recombinant anti-UPK2 monoclonal antibody (murine-human chimeric) (antibody, V domains shown)
VH: QVQLKQSGPGLVRPGASVTMSCKASGYTFTSNWMHWVKQRPGQGLDWIGMIDPSNSDTRLNQKFKDKATLNVDKSSNTAYMQLSSLTSDDSAVYYCMRGGGDYWGQGTTLTVSS
VL: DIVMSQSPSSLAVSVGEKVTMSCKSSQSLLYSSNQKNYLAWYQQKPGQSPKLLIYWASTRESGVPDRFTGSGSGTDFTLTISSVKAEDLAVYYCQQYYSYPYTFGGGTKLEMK
